Assay results taken from publication PMC13105642.

Biological target: Antibody_82-M1
Assay: SPR; Biacore 8K; antibody captured on a Protein G chip; gradient concentrations of LONP1 as analyte; 1x HBS-EP buffer; fitted to a 1:1 binding model

Chain of Antibody_82-M1 (heavy, as listed by the source, chain 1 of 2): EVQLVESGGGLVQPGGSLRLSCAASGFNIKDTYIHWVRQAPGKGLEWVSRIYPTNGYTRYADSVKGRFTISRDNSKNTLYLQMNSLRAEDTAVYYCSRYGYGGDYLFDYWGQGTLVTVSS
Chain of Antibody_82-M1 (light, as listed by the source, chain 2 of 2): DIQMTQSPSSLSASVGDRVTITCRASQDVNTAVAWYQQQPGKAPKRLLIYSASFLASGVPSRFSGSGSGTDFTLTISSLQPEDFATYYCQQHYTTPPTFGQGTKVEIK

- Kd: 0.829 nM
- koff: 0.000151 s⁻¹
- kon: 182000 M⁻¹ s⁻¹
B1: Lon Peptidase 1 (LONP1) (enzyme)
chain: FWEASSRGGGAFSGGEDASEGGAEEGAGGAGGSAGAGEGPVITALTPMTIPDVFPHLPLIAITRNPVFPRFIKIIEVKNKKLVELLRRKVRLAQPYVGVFLKRDDSNESDVVESLDEIYHTGTFAQIHEMQDLGDKLRMIVMGHRRVHISRQLEVEPEEPEAENKHKPRRKSKRGKKEAEDELSARHPAELAMEPTPELPAEVLMVEVENVVHEDFQVTEEVKALTAEIVKTIRDIIALNPLYRESVLQMMQAGQRVVDNPIYLSDMGAALTGAESHELQDVLEETNIPKRLYKALSLLKKEFELSKLQQRLGREVEEKIKQTHRKYLLQEQLKIIKKELGLEKDDKDAIEEKFRERLKELVVPKHVMDVVDEELSKLGLLDNHSSEFNVTRNYLDWLTSIPWGKYSNENLDLARAQAVLEEDHYGMEDVKKRILEFIAVSQLRGSTQGKILCFYGPPGVGKTSIARSIARALNREYFRFSVGGMTDVAEIKGHRRTYVGAMPGKIIQCLKKTKTENPLILIDEVDKIGRGYQGDPSSALLELLDPEQNANFLDHYLDVPVDLSKVLFICTANVTDTIPEPLRDRMEMINVSGYVAQEKLAIAERYLVPQARALCGLDESKAKLSSDVLTLLIKQYCRESGVRNLQKQVEKVLRKSAYKIVSGEAESVEVTPENLQDFVGKPVFTVERMYDVTPPGVVMGLAWTAMGGSTLFVETSLRRPQDKDAKGDKDGSLEVTGQLGEVMKESARIAYTFARAFLMQHAPANDYLVTSHIHLHVPEGATPKDGPSAGCTIVTALLSLAMGRPVRQNLAMTGEVSLTGKILPVGGIKEKTIAAKRAGVTCIVLPAENKKDFYDLAAFITEGLEVHFVEHYREIFDIAFPDEQAEALAVER
